From the supplement of paper PMC12042874
± gives the uncertainty stated by the source.

Test: amyloid nucleation score (Sup35N fusion, yeast selection) (log enrichment); library NNK2; higher = more nucleation; inactive = no reads after selection
Summary of the method: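 Random libraries were run with three technical output replicates. In each, psi-negative yeast expressing Sup35N fused to peptides of 20 random codons were induced 24 hours with 100 μM copper sulfate and grown 7 days at 30°C on medium lacking adenine and uracil, and input and output plasmid inserts were Illumina-sequenced. The nucleation score is the DiMSum log enrichment of output over input reads, centred on the mode score of non-aggregating sequences, and sequences under 100 input reads were excluded.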

Substance | amyloid nucleation score
RFVYMLVCIELVG | -0.953 ± 0.78
NRSIVYGYFQLYENFNWPFS | 0.913 ± 0.19
HCGCMEQA | 0.486 ± 0.8
LFGNWSFVVNRCVVSLKLM | inactive
MPQSYFLGSRIKRFKKSRLV | 0.496 ± 0.37
LHSYVFTKGSRTQCRWRKNP | 0.07 ± 0.28
CINLTLYFMQ | 9.091 ± 0.053
SRYSSV | 0.172 ± 0.65
IVAEMW | 1.75 ± 0.4
KYVIR | -0.606 ± 1.1
RCMFDIYFVLVTCEQWCCLV | 0.099 ± 0.49
FIAGLS | -0.734 ± 0.76
FCKFMSCESRPCNIMKCWGV | 0.276 ± 0.6
PRLCDECPSCVDLSGVWNPY | inactive
IYNLWYGISPSVMGGLGFLR | 3.82 ± 0.062
QYYRN | 1.51 ± 0.58
CFRDTFERSFKFLERPNIMH | 1.26 ± 0.19
PGSAIRVVSMRLWGRRRSAG | 0.458 ± 0.45
LNSPLIPVRLMGVVRFQLLD | -0.459 ± 0.39
TTTESMRIWPTNRFKRCTLQ | 0.582 ± 0.2
DEIQGLNRRYLPRG | 0.936 ± 0.52
FLFFGVGMMCEARDAPMVAF | 0.073 ± 1.1
VYNWGGRLKP | 0.147 ± 0.49
TYKEYCGE | -0.693 ± 0.78
TELKEGLYAGIHFNTGTG | -0.457 ± 0.64
WGENARAESRTEEMLL | 1.81 ± 0.22

Substance | amyloid nucleation score
IMDLAKVCEGVLSSGRVALI | 0.096 ± 0.29
YLLMTKCVTVAERMGIMISC | -0.95 ± 1
KCRHFCRCETCTRYDPVHIL | 1 ± 0.53
SGHTFVFFYDSK | 5.95 ± 0.061
DFAFAFVVGTVLAISICVKH | -0.459 ± 0.56
EDIIIVQFVV | 0.424 ± 0.24
ICAGISKKSGGTWSRARVCS | inactive
GSSVDGADMIGTLK | 1.46 ± 0.28
LALNLQNCTRGGFTILTVS | inactive
YLWDTIYIDLSVLLVLATSW | 0.21 ± 0.54
FQCLVFLLIGRFGVRHWT | -0.675 ± 1.1
YRKHRLLH | -0.893 ± 0.76
DKYFLLAYGVWGSLRFLTLC | -0.288 ± 1
HEHLLPRT | 0.02 ± 0.74
WSPYEEPR | 0.298 ± 0.35
EIFFKCGFLLLGCDRPGRVR | 0.413 ± 0.43
DCRFQIHVCDAYDK | inactive
VTKSYITRSVFSVGNYSETS | -0.226 ± 1.1
CVSWRYFMFPCLVSLEMSSS | 3.71 ± 0.085
SILFFKGGLRRSLEHLACTA | 0.635 ± 0.52
KLVTYVPSNKTNCHDDDGTY | -0.678 ± 0.56
DHHDTTHYYIWVDKYKYLV | -0.216 ± 0.64
PRPFGKNWVKKDLNCLHKLN | -0.251 ± 0.35
LALMFLYAALFHAAR | 7.139 ± 0.058
TGLDFGNLLLARCMSRV | 0.43 ± 0.32
GCWSPKLSIGRRSRSALYRG | 1.2 ± 0.66

Substance | amyloid nucleation score
ELHLFHATPRY | 6.61 ± 0.067
LVYFKRRLPTRLIANRRMNG | -0.845 ± 0.76
IHDWKQSYVNVC | 0.084 ± 0.45
YSDKHM | -1.27 ± 0.64
VKTKAVTRVMIP | 0.589 ± 0.35
MLCVFRVLPMLNWY | -0.257 ± 0.48
KPIVITLLLSDCVRM | 9.498 ± 0.026
YGQIITSEKNRRNYMCPFSG | -0.393 ± 1.1
FYRLLWSRNCTEVR | -1.43 ± 0.75
NPTHLLPHTEIGVLDTCAF | 0.265 ± 1.1
GKESTTKH | -0.494 ± 0.56
SASQDATPHGCGIGISLNTR | 2.79 ± 0.068
VFVEVDVTGFNFRLE | -1.18 ± 0.48
RNSSVGT | inactive
GECHEWV | -0.837 ± 1.1
YEGFM | -0.297 ± 0.56
GTQRAYGVKGKLETDLIRLK | 8.554 ± 0.059
LSAKSTCTAYNRAGSARTEY | -0.072 ± 1.1
KFWDLC | 0.047 ± 0.45
MNHWGMLRLGSWYRITYA | -0.367 ± 0.38
IFWTELCNPKFSFC | 9.439 ± 0.023
FAFIYVIT | inactive
TIFIGVRVPS | -0.224 ± 0.63
HLLHGPFMSLGG | -0.973 ± 1
SELPDIRWHTGWMFLSCAWN | -0.397 ± 0.63
LNLSYIKAVTSRFAADYVL | 0.523 ± 0.18

Substance | amyloid nucleation score
LWIYNYVIRLDFICMERILL | inactive
FYHISYGERKRGGLC | inactive
CSSEDITYAWQWARWLRS | 0.494 ± 0.41
NIPAYTSMTFVLWTIL | -0.153 ± 0.37
SQKNCCKVEGRLMASRVKPR | 0.155 ± 1.1
SDDFTYSIYFMSWFFYGSYN | inactive
SILLRKRQELSNFTMW | -0.67 ± 0.76
KEHGMESRPSWLTFSIYLVG | 0.428 ± 0.56
SWALKRAPVGNR | inactive
SYAYVSKMYVKYCQLKFI | -0.921 ± 0.78
YLSGYRLRTVVAVDTGMWYV | 2.65 ± 0.13
HLFLRFADSSYWIS | 1.24 ± 0.35
LLMSCPLSLCSEGVTSLVEG | 1.29 ± 0.3
CILRPSLSFFHMPLR | 6.962 ± 0.033
LPHLCCIIY | 2.56 ± 0.066
SAPRNNVATLTEHLERLVLR | -0.767 ± 0.76
AALELSRNKFSVRIICVLLW | -0.238 ± 1.1
TSLGNL | -0.825 ± 1.1
CLAVSSDVDSQGKGIRIYIL | -1.24 ± 1.1
CVSEARRIE | -0.36 ± 0.35
SCRRADFGMAVVHSLLVCGE | 0.709 ± 0.66
CTRRRM | 1.63 ± 0.15
KSQVPPNFWVVMCLTEFSVV | 5.628 ± 0.046
SLVLVDFAYSWMSGSAFWFF | -1.09 ± 1.1
AAGRDVARAFGSLVQKLGVG | 4.88 ± 0.097
SASLSTRVNNTPLPALTRWV | 0.708 ± 0.62

Substance | amyloid nucleation score
YSGKCMEDVRGQMVGGLELV | 0.405 ± 0.22
HRWVVWEYTGLAFYLAALEY | -0.469 ± 0.36
FWQNCMALLFRFIMFKRKNV | -1.27 ± 1
DKLVRWHLGMLIGGRGSCLF | 0.294 ± 0.8
NRLPFKYLSIDIYPCLASLA | -0.3 ± 0.26
WTVGRRELGCM | inactive
LILTFLEWNLFFYSFNIFTY | 5.39 ± 0.078
TVLFKGLRYRRNFKFGTQTT | -0.056 ± 0.76
IVCLYKKCLLCGLHLVVSIV | -0.608 ± 0.53
LFIICNSVVHMDLASVGNVS | 8.409 ± 0.043
FEFSPQSRCTGFLSVVCMVE | 0.042 ± 0.5
SMDGSQDCTTKLNWSFHSVF | 3.88 ± 0.066
LGDRCNS | 2.36 ± 0.11
ESPTVCPANF | -0.248 ± 0.65
DIFLTLEFYISVETKGAKKA | 3.92 ± 0.05
ETMIHTPQELYVMYSPLTQQ | 6.263 ± 0.051
TDKCVTTFNCYNLHRR | 1.62 ± 0.15
RMPFHVFRIKFHFLLRVPIQ | 0.851 ± 0.52
FFVKNASSSFFLLKRLSWT | -0.59 ± 1.1
SYHNVG | -0.974 ± 0.61
NMIYYGVL | -1.24 ± 0.45
CSCQAVLLLASSRPAIKVRC | 1.86 ± 0.31
FACNLGFMTSSFMRWSNTSA | 0.356 ± 0.33
FIVCALIKEHILTYPGKVFV | inactive
FEACVTGMLSDRF | -0.871 ± 0.41
